Experimental data taken from paper PMC5225419.

Target: full length (FL) human recombinant TPPP/p25 (Tubulin Polymerization Promoting Protein) (human) (UniProt O94811)
Assay: SDS-PAGE without reducing agent; 5 ug protein from the 200 uM stock solution loaded directly onto the gel in the absence of DTE; disulphide-stabilized dimers

Q: Which stoichiometry N does the source give for “full length (FL) human recombinant TPPP/p25 (Tubulin Polymerization Promoting Protein) (from UniProt O94811 1-219) (natural protein; other documents disagree on this pair)” here?
A: 2
